Laboratory results reported in patent publication US20170065725A1.

Target: porcine TSH receptor (immobilized, TSH Receptor Autoantibody 2nd Generation ELISA kit, RSR Limited) (porcine) (UniProt Q8SPP9)
Assay: competition ELISA; inhibition of biotinylated rhTSH binding to immobilized porcine TSH receptor

Chain of porcine TSH receptor (immobilized, TSH Receptor Autoantibody 2nd Generation ELISA kit, RSR Limited) (porcine) (Q8SPP9 22-764 limits assumed): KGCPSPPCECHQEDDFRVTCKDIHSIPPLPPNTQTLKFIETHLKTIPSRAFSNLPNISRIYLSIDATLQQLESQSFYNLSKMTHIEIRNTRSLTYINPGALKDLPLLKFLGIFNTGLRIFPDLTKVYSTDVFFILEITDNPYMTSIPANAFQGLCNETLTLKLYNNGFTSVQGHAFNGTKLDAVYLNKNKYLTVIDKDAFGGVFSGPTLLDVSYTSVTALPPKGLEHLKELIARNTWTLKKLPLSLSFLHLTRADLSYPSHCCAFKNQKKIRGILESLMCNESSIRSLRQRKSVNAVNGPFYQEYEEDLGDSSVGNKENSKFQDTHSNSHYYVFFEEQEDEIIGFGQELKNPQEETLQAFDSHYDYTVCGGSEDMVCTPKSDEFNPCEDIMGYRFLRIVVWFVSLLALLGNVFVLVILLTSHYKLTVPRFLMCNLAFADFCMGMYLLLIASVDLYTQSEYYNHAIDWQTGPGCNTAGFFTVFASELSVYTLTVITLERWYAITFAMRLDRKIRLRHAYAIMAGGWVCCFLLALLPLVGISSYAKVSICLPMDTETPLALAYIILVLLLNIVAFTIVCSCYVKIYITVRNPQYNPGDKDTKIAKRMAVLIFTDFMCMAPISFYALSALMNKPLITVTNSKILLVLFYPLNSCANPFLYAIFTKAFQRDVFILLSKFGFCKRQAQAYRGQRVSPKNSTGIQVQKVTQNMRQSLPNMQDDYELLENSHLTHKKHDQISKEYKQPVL
Chain of PEG rhTSH (10 KD SAM), monoPEGylated (ligand) (P01215 25-116): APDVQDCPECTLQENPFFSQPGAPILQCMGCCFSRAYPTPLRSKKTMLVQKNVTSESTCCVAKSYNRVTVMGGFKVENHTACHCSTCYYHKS
Chain of PEG rhTSH (10 KD SAM), monoPEGylated (ligand) (P01222 21-138, further chain): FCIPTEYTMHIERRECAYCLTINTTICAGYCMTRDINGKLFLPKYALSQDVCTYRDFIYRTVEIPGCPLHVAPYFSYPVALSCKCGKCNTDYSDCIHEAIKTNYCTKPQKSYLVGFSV
Chain of PEG rhTSH (40 KD GAM-), monoPEGylated (ligand) (P01215 25-116): as the sequence (P01215 25-116) above
Chain of PEG rhTSH (40 KD GAM-), monoPEGylated (ligand) (P01222 21-138, further chain): as the sequence (P01222 21-138, further chain) above
Chain of PEG rhTSH (40 KD SAM), monoPEGylated (ligand) (P01215 25-116): as the sequence (P01215 25-116) above
Chain of PEG rhTSH (40 KD SAM), monoPEGylated (ligand) (P01222 21-138, further chain): as the sequence (P01222 21-138, further chain) above
Chain of PEG rhTSH (20 KD SAM), monoPEGylated (ligand) (P01215 25-116): as the sequence (P01215 25-116) above
Chain of PEG rhTSH (20 KD SAM), monoPEGylated (ligand) (P01222 21-138, further chain): as the sequence (P01222 21-138, further chain) above
Chain of PEG rhTSH (20 KD GAM+), monoPEGylated (ligand) (P01215 25-116): as the sequence (P01215 25-116) above
Chain of PEG rhTSH (20 KD GAM+), monoPEGylated (ligand) (P01222 21-138, further chain): as the sequence (P01222 21-138, further chain) above
Chain of PEG rhTSH (10 KD MultiSAM) (ligand) (P01215 25-116): as the sequence (P01215 25-116) above
Chain of PEG rhTSH (10 KD MultiSAM) (ligand) (P01222 21-138, further chain): as the sequence (P01222 21-138, further chain) above
Chain of PEG rhTSH (20 KD GAM-), monoPEGylated (ligand) (P01215 25-116): as the sequence (P01215 25-116) above
Chain of PEG rhTSH (20 KD GAM-), monoPEGylated (ligand) (P01222 21-138, further chain): as the sequence (P01222 21-138, further chain) above
Chain of PEG rhTSH (40 KD GAM+), monoPEGylated (ligand) (P01215 25-116): as the sequence (P01215 25-116) above
Chain of PEG rhTSH (40 KD GAM+), monoPEGylated (ligand) (P01222 21-138, further chain): as the sequence (P01222 21-138, further chain) above
Chain of mono-40 kDa NHS PEG-TSH (Lysine PEGylation) (ligand) (P01215 25-116): as the sequence (P01215 25-116) above
Chain of mono-40 kDa NHS PEG-TSH (Lysine PEGylation) (ligand) (P01222 21-138, further chain): as the sequence (P01222 21-138, further chain) above

Substance	IC50 [nM]	fold change (IC50 against rhTSH) [fold]
PEG rhTSH (40 KD GAM+), monoPEGylated (ligand)	133	3.6
PEG rhTSH (20 KD GAM+), monoPEGylated (ligand)	81.7	2.2
PEG rhTSH (40 KD GAM-), monoPEGylated (ligand)	294	8
PEG rhTSH (10 KD MultiSAM) (ligand)	138	3.8
PEG rhTSH (20 KD SAM), monoPEGylated (ligand)	92.3	2.5

Further lines, results first:

IC50 [nM]	fold change (IC50 against rhTSH) [fold]	Substance
78.1	2.1	PEG rhTSH (10 KD SAM), monoPEGylated (ligand)
101	2.7	PEG rhTSH (20 KD GAM-), monoPEGylated (ligand)
876	31.2	mono-40 kDa NHS PEG-TSH (Lysine PEGylation) (ligand)
196	5.3	PEG rhTSH (40 KD SAM), monoPEGylated (ligand)
